# Reference: the supplement of paper PMC10126150
# ± gives the standard deviation of the averaged measurements.
# Tested on: ATP
# Assay: switch fluorescence ratio, 500 uM ATP over buffer (Cy3 cluster intensity, sum of 5 cycles each) (fold (ratio)); higher = stronger signal-on switching upon ATP binding; sequences stand for … in TCGTCGGCAGCGTCAGATGTGTATAAGAGACAGTTTTTTTTTTTTTTTTTTTTTTTTT…TC
# Settings: aptamer strand: ATP DNA aptamer (quencher-CACCTGGGGGAGTATTGCGGAGGAAGG + anchor), 100 nM annealed; ATP concentration: 500 uM
# Method in brief: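 Between each of five buffer/ATP cycles, the flow-cell was stripped with NaOH and re-annealed. Each cycle imaged Cy3-labelled switching-strand clusters, annealed to 100 nM quencher-labelled ATP aptamer on a modified Illumina MiSeq flow-cell, first in selection buffer and then after 15 min with 500 uM ATP at 22 °C. The fluorescence ratio is summed target-cycle over summed buffer-cycle Cy3 intensity per cluster, averaged per switch-domain sequence, with clusters outside 100-1000 RFU excluded.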
# 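Note: ATP exposure 15 min at 22 °C before imaging.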
row,Sequence,switch fluorescence ratio
1,ACGAAATCGG,1.03 ± 0.018
2,CGGGTCGAGC,1 ± 0.03
3,GTTTGGGTTT,0.992 ± 0.031
4,CAATAGGGGC,0.969 ± 0.03
5,ACCCCAAATG,1.124 ± 0.0098
6,CGAAGGTTTG,0.945 ± 0.058
7,ACACGATGGG,1 ± 0.019
8,AGTAAGAGCA,1.01 ± 0.011
9,ATGGGAGCTT,1.01 ± 0.025
10,TTTGTTTTGT,1.01 ± 0.051
11,CAGGCGCAGG,1.06 ± 0.051
12,GGGTCTAGGA,1.006 ± 0.0052
13,AGTGCGTCTC,0.975 ± 0.012
14,CGTATAATGT,0.996 ± 0.015
15,TGAATGATAG,0.983 ± 0.026
16,GGTAATATTA,1.07 ± 0.051
17,AGCAAATGGT,1.07 ± 0.051
18,GAATTACGGC,1.04 ± 0.069
19,AGAGGGGAAT,1.01 ± 0.023
20,AAGTTGGGGG,1.01 ± 0.025
21,TTTTGAATAA,0.9685 ± 0.0049
22,ATGTATTCGA,0.996 ± 0.027
23,TTCATATTTT,0.996 ± 0.015

row,Sequence,switch fluorescence ratio
1,GAGAATTGTA,0.97 ± 0.03
2,AGTAATGGGT,0.996 ± 0.017
3,TTGCGCCTTT,1.03 ± 0.0099
4,TGCATGTGTC,0.99 ± 0.035
5,AGCAATTTTT,1.1 ± 0.034
6,TCTGCTTCAG,0.973 ± 0.022
7,AGTTTTGATG,0.9784 ± 0.0044
8,CCGGGGGGTG,1.07 ± 0.066
9,GCTAGAAGTA,1.02 ± 0.049
10,AATCGGCTCA,0.98074 ± 0.00017
11,GGCGCAACCG,1.09 ± 0.015
12,GAATATTTCT,1.02 ± 0.021
13,TTTGTAACAT,0.966 ± 0.047
14,GCAATAATTT,2.83 ± 0.52
15,GTAACGGGGA,0.995 ± 0.072
16,GATGGTAGTT,1.012 ± 0.0024
17,AGTTTGTAGT,1 ± 0.011
18,AGTAGGCAGC,1.01 ± 0.033
19,GATGGAGGTG,0.997 ± 0.011
20,GCTGTGGGGG,0.966 ± 0.013
21,AGTTGGGGAG,0.9933 ± 0.0023
22,TCGATATATG,1 ± 0.028
23,CTTAGGGCGG,0.957 ± 0.027

row,Sequence,switch fluorescence ratio
1,GAAAAAACAC,1.16 ± 0.1
2,GCCCTTTTAA,0.982 ± 0.016
3,GCATAAATAG,1.02 ± 0.018
4,CGGCGGGCTG,0.989 ± 0.062
5,TGTTGAGCTC,0.9936 ± 0.0084
6,AGGATTGAGT,1.024 ± 0.0094
7,CGCAGGTGGG,1.08 ± 0.042
8,TTTTTTCAAG,0.978 ± 0.019
9,TTCGGTGACC,1.02 ± 0.014
10,AAATCTCATC,1.03 ± 0.014
11,GATGAATGGG,0.996 ± 0.014
12,ACTTTGGGAT,1.023 ± 0.0029
13,GCTGGGTCTG,1 ± 0.017
14,TTTGAAAAGG,1.01 ± 0.039
15,TGTTTCCCGT,1 ± 0.022
16,GAAATTACAG,0.994 ± 0.016
17,GGGATCGGGA,0.995 ± 0.013
18,TGTGAGGCTT,1.03 ± 0.015
19,ATCATACGGA,1.034 ± 0.0088
20,GGGCCGGTTG,0.995 ± 0.017
21,TCGATCGCTA,1.43 ± 0.59
22,AATAATAGCC,1.01 ± 0.042
23,GGGGGAAATT,1.03 ± 0.015

row,Sequence,switch fluorescence ratio
1,TTCGAATATT,1.13 ± 0.26
2,TTAATCGTAG,0.991 ± 0.013
3,TTTACAATGG,1.058 ± 0.0062
4,CTGGGGATTT,1.02 ± 0.013
5,GCATTGTGCC,1.02 ± 0.022
6,GCGGAATGCT,1.2 ± 0.32
7,CGTCGGAGGC,0.986 ± 0.019
8,AGTTGAGGGC,0.98 ± 0.047
9,AGGGAACCGC,1.016 ± 0.0062
10,AAAGCGGTTA,1.007 ± 0.006
11,CAGTCGACTG,1.01 ± 0.019
12,GTATGAGTTG,1.02 ± 0.027
13,ACTGTAATGT,1.13 ± 0.011
14,AAAAATACGG,0.965 ± 0.057
15,GAGGAAGCGA,1.18 ± 0.059
16,CGGGCTCAGC,1.008 ± 0.0094
17,CATTTTTAAC,0.977 ± 0.014
18,GAGGTTGTTA,0.993 ± 0.032
19,TTTAAGACGG,0.98439 ± 0.00032
20,AACGAAGATT,1.01 ± 0.019
21,CGAAGAGGTG,1.07 ± 0.021
22,CATTTTGTGG,0.987 ± 0.012
23,ATATAAGGGA,1 ± 0.019

row,Sequence,switch fluorescence ratio
1,TAGGCTCGGG,0.99 ± 0.038
2,ATTGAGCGGA,1.0358 ± 0.001
3,ATCGGGAGGT,1.04 ± 0.061
4,TTGTGCTGGA,1.04 ± 0.029
5,TCTGTCGGGC,0.994 ± 0.054
6,AAGGCATGCG,1.037 ± 0.005
7,GGGGGGACGT,1.02 ± 0.035
8,TGGCGGGGTT,0.986 ± 0.022
9,TGCGGTGTAG,1.01 ± 0.011
10,TGACATTTGT,0.965 ± 0.048
11,TAGGCACCTG,1.0679 ± 0.00092
12,AGCTAAAACG,1.14 ± 0.19
13,ATGGGGGAAT,1.0184 ± 0.00041
14,ATGGGGGCTA,0.979 ± 0.068
15,TCAATTCAGG,1.01 ± 0.016
16,TATACCATTT,1.01 ± 0.015
17,TTCTCGGGGG,1.04 ± 0.043
18,TGATAGGACA,0.983 ± 0.023
19,AGGTTTAAAC,1.06 ± 0.063
20,AAGGCGGGGC,0.981 ± 0.051
21,GGGGTGCCAG,0.963 ± 0.058
22,GTGACATTAA,0.998 ± 0.03
23,GAGCGGGGGT,1.01 ± 0.013

row,Sequence,switch fluorescence ratio
1,AAAAAATCGG,1 ± 0.019
2,AAGACACGC,1.04 ± 0.042
3,CGAAGGGGTA,0.987 ± 0.018
4,TACAGGACTC,1.09 ± 0.012
5,CCTATCGTTG,1.08 ± 0.0056
6,ACATTAAAAA,1.26 ± 0.013
7,TCGTGTATAT,1 ± 0.027
8,TTTTATACGT,1.01 ± 0.016
9,TCATGGGGTG,1.05 ± 0.07
10,TTGGCATGGC,1.04 ± 0.026
11,TTATAGATAG,0.999 ± 0.018
12,AGCCGGATCA,0.9931 ± 0.0056
13,TATGATGCTA,1.03 ± 0.088
14,TCGTACGAAG,1 ± 0.032
15,ATGGTTGCAG,0.9553 ± 0.004
16,GAGGCATATA,1.9 ± 0.29
17,CAGTTTGTTT,0.9881 ± 0.0031
18,AGGAGCTAGT,1.01 ± 0.038
19,TCTTTTGGCG,0.927 ± 0.059
20,TTGGGGATGT,1 ± 0.031
21,TTTTGTATGG,0.9893 ± 0.0079
22,TGAGGGGGGA,1 ± 0.036
23,GAACTAGGTC,1.01 ± 0.021

row,Sequence,switch fluorescence ratio
1,TTTTTGTTCT,0.996 ± 0.024
2,GCTAGGAAGT,0.983 ± 0.022
3,ATGTTATTTG,0.963 ± 0.022
4,AGGCTATATT,0.975 ± 0.01
5,TATATGGATT,0.999 ± 0.015
6,TCGGGGCGGG,1.01 ± 0.056
7,AATTGGCCGG,0.989 ± 0.011
8,TTTATGATGC,1.011 ± 0.0092
9,GGTAGTGGGA,1 ± 0.046
10,CGCGAACATG,0.984 ± 0.049
11,GCTCGCCTTA,0.999 ± 0.039
12,TTTGGGAAGG,0.985 ± 0.034
13,GGAACGGGCT,1 ± 0.021
14,AGCTTTAGGG,0.9905 ± 0.0022
15,TAGCACGCGG,0.9748 ± 0.0041
16,CAGAGGGGGT,0.988 ± 0.017
17,GGTGCATATA,1.05 ± 0.032
18,TCGTATTACG,1.03 ± 0.094
19,TAATATGTTC,1 ± 0.037
